Assay results: paper PMC2652481

Target: TAF-4 (UniProt O61707)
Assay: membrane recruitment of GFP::TAF-4 by Myr::FLAG::OMA-1-FL
Conditions: sites T239

other: percent of cells with membrane GFP::TAF-4 (reference: kinase-dead MBK-2 (Y237A) coexpressed)	other: percent of cells with membrane GFP::TAF-4 (reference: no MBK-2 coexpressed)	other: percent of cells with membrane GFP::TAF-4 (reference: wild type OMA-1-FL with MBK-2)	Substance
stronger; reference 16	stronger; reference 8		OMA-1 (from UniProt G5EC86) MBK-2 coexpressed
		weaker; reference 48	OMA-1 (from UniProt G5EC86) T239A with MBK-2
